Assay results: publication PMC11098083 (Proceedings of the National Academy of Sciences of the …, 2024)
Read-outs that look alike come from different tables or passages of the source.

T1: HIS-tagged N-terminal of yeast Pol1 (1 to 527 AA) (yeast (S. cerevisiae), UniProt P13382 1-527)
T1 sequence (looked up): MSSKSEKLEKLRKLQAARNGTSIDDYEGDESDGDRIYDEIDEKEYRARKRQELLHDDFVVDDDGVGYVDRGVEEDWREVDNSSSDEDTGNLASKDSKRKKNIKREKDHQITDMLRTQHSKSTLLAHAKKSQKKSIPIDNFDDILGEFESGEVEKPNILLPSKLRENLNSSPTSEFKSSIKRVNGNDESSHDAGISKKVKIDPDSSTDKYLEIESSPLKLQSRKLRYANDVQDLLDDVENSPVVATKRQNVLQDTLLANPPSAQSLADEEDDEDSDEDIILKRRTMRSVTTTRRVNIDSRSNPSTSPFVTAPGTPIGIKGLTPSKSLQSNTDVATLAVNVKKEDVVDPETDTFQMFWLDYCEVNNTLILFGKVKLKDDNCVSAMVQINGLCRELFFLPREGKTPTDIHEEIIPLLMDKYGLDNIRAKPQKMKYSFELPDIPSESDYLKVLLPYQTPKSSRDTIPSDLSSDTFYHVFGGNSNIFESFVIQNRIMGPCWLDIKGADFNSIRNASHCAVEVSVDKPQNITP

B1: recombinant glutathione S-transferase (GST)-Pol32 (natural protein, yeast (S. cerevisiae), UniProt P47110 1-350, looked up)
chain: MDQKASYFINEKLFTEVKPVLFTDLIHHLKIGPSMAKKLMFDYYKQTTNAKYNCVVICCYKDQTIKIIHDLSNIPQQDSIIDCFIYAFNPMDSFIPYYDIIDQKDCLTIKNSYELKVSESSKIIERTKTLEEKSKPLVRPTARSKTTPEETTGRKSKSKDMGLRSTALLAKMKKDRDDKETSRQNELRKRKEENLQKINKQNPEREAQMKELNNLFVEDDLDTEEVNGGSKPNSPKETDSNDKDKNNDDLEDLLETTAEDSLMDVPKIQQTKPSETEHSKEPKSEEEPSSFIDEDGYIVTKRPATSTPPRKPSPVVKRALSSSKKQETPSSNKRLKKQGTLESFFKRKAK
B2: recombinant Mcm2 (GST tag removed) (natural protein)
chain: MSDNRRRRREEDDSDSENELPPSSPQQHFRGGMNPVSSPIGSPDMINPEGDDNEVDDVPDIDEVEEQMNEVDLMDDNMYEDYAADHNRDRYDPDQVDDREQQELSLSERRRIDAQLNERDRLLRNVAYIDDEDEEQEGAAQLDEMGLPVQRRRRRRQYEDLENSDDDLLSDMDIDPLREELTLESLSNVKANSYSEWITQPNVSRTIARELKSFLLEYTDETGRSVYGARIRTLGEMNSESLEVNYRHLAESKAILALFLAKCPEEMLKIFDLVAMEATELHYPDYARIHSEIHVRISDFPTIYSLRELRESNLSSLVRVTGVVTRRTGVFPQLKYVKFNCLKCGSILGPFFQDSNEEIRISFCTNCKSKGPFRVNGEKTVYRNYQRVTLQEAPGTVPPGRLPRHREVILLADLVDVSKPGEEVEVTGIYKNNYDGNLNAKNGFPVFATIIEANSIKRREGNTANEGEEGLDVFSWTEEEEREFRKISRDRGIIDKIISSMAPSIYGHRDIKTAVACSLFGGVPKNVNGKHSIRGDINVLLLGDPGTAKSQILKYVEKTAHRAVFATGQGASAVGLTASVRKDPITKEWTLEGGALVLADKGVCLIDEFDKMNDQDRTSIHEAMEQQSISISKAGIVTTLQARCSIIAAANPNGGRYNSTLPLAQNVSLTEPILSRFDILCVVRDLVDEEADERLATFVVDSHVRSHPENDEDREGEELKNNGESAIEQGEDEINEQLNARQRRLQRQRKKEEEISPIPQELLMKYIHYARTKIYPKLHQMDMDKVSRVYADLRRESISTGSFPITVRHLESILRIAESFAKMRLSEFVSSYDLDRAIKVVVDSFVDAQKVSVRRQLRRSFAIYTLGH

Tests used:
Assay in all cases: pull-down
[1] = target: B2
[2] = target: T2, recombinant human histone H3.1–H4 tetramer (human, UniProt P68431 1-136; P62805 1-103)
[3] = target: T1, HIS-tagged N-terminal of yeast Pol1 (1 …)
[4] = target: T2, recombinant human histone H3.1–H4 …; remark: listed apart in the source

binding result [1]	binding result [2]	binding result [3]	binding result [4]	Binder
binds	binds	binds		B1
			binds	B2
